Experimental findings from US20230002466A1 (ELPIS BIOPHARMACEUTICALS, published 2023) are described below.

For the assay, the target named is T1, human IL2Rα (human, UniProt P01589 22-213, limits assumed).
T1 construct: also called IL2α; CD25
T1 sequence (looked up): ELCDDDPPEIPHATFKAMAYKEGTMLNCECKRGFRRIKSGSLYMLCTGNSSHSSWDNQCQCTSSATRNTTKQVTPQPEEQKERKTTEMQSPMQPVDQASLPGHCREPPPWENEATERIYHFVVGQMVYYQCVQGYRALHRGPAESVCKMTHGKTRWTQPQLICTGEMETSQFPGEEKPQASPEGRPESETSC
Nature of the assay: SPR, IL2Rα captured on Protein A chip, IL2 at 100 nM. As to the method:
The binding kinetics of IL2Rα-reduced binding clones to IL2Rα was assessed utilizing SPR technology with a Biacore T200, software version 2.0. For each cycle, 1 ug/mL of human IL2Rα was captured for 60 seconds at a flow rate of 10 uL/min on flow cell 2 in 1×HBSP buffer on a Protein A sensor chip. 100 nM of each HIS and Flag tag purified IL2 mutant was injected onto both the reference flow cell 1 and IL2Rα captured flow cell 2 for 150 seconds at a flow rate of 30 uL/min followed by washing for 300 seconds. The flow cells were then regenerated with Glycine pH 2.0 for 60 seconds at a flow rate of 30 uL/min. A HBSP+ buffer was included with each sample as a baseline control. The assay was set up in a 96-well format. The kinetics data was analyzed with Biacore T200 evaluation software 3.0. The specific binding response unit was derived from subtraction of binding to reference flow cell 1 from IL2Rα flow cell 2 and subtraction of buffer control. […] Relative response (RU) was determined for each IL2Rα-reduced binding clone (FIG. 4, Table 3).
For orientation: SPR reads the build-up and loss of mass on a sensor chip optically.

B1: EP100 (ligand)
chain: APTSSSTKKTQLQLEHLLLDLQMILNGINNYKNPVLTRMLTIKFYMPKKATELKHLQCLEEELKPLEEVLNLAQSKNFHLRPRDLISNINVIVLELKGSETTFMCEYADETATIVEFLNRWITFSQSIISTLT
Consider B1, for which the “RU (at 100 nM)” value was 1.7 RU and the “Relevant binding to WT IL2 (%)” value is 1.19%.

B2: EP101 (ligand)
chain: APTSSSTKKTQLQLEHLLLDLQMILNGINNYKNPKLTRMLTLKFPMPKKATELKHLQCLEEELKPLEEVLNLAQSKNFHLRPRDLISNINVIVLELKGSETTFMCEYADETATIVEFLNRWITFSQSIISTLT
B2: the “RU (at 100 nM)” value was 2.5 RU and the “Relevant binding to WT IL2 (%)” value came to 1.76%.

B3: EP120 (ligand)
chain: APTSSSTKKTQLQLEHLLLDLQMILNGINNYKNPKLTVMLTFKFTMPKKATELKHLQCLEEELKPLEEVLNLAQSKNFHLRPRDLISNINVIVLELKGSETTFMCEYADETATIVEFLNRWITFSQSIISTLT
Turning to B3, the “RU (at 100 nM)” value was 3.6 RU and the “Relevant binding to WT IL2 (%)” value was found to be 2.54%.

B4: EP125 (ligand)
chain: APTSSSTKKTQLQLEHLLLDLQMILNGINNYKNPKLTNMLTFKFAMPKKATELKHLQCLEEELKPLEEVLNLAQSKNFHLRPRDLISNINVIVLELKGSETTFMCEYADETATIVEFLNRWITFSQSIISTLT
B4: the “RU (at 100 nM)” value was found to be 6.1 RU and the “Relevant binding to WT IL2 (%)” value is 4.29%.

B5: EP110 (ligand)
chain: APTSSSTKKTQLQLEHLLLDLQMILNGINNYKNPLLTDMLTRKFYMPKKATELKHLQCLEEELKPLEEVLNLAQSKNFHLRPRDLISNINVIVLELKGSETTFMCEYADETATIVEFLNRWITFCQSIISTLT
notes: not shown: His and Flag tags
Turning to B5, the “RU (at 100 nM)” value was 2.6 RU and the “Relevant binding to WT IL2 (%)” value is 1.83%.

B6: EP117 (ligand)
chain: APTSSSTKKTQLQLEHLLLDLQMILNGINNYKNPKLTYMLTFKFSMPKKATELKHLQCLEEELKPLEEVLNLAQSKNFHLRPRDLISNINVIVLELKGSETTFMCEYADETATIVEFLNRWITFSQSIISTLT
As for B6, the “RU (at 100 nM)” value is 2.5 RU and the “Relevant binding to WT IL2 (%)” value was 1.76%.

B7: EP102 (ligand, not shown: small tags and cut ends)
chain: APTSSSTKKTQLQLEHLLLDLQMILNGINNYKNPDLTSMLAFKFYMPKKATELKHLQCLEEELKPLEEVLNLAQSKNFHLRPRDLISNINVIVLELKGSETTFMCEYADETATIVEFLNRWITFSQSIISTLT
As for B7, the “RU (at 100 nM)” value amounted to 2.7 RU and the “Relevant binding to WT IL2 (%)” value came to 1.9%.
